According to US20190225705A1 (published 2019):
Numbering of substitutions follows the chain as printed.

B1: humanized and germlined anti-FXI antibody TPP-3583 (antibody, V domains shown)
VH: EVTLRESGPALVKPTQTLTLTCTFSGFSLSTSGMGVGWIRQPPGKALEWLAHIDWDDDKYYSPSLKSRLTISKDTSKNQVVLTMTNMDPVDTATYYCARIRSSVYAHYYGMDYWGQGTTVTVSS
VL: DIVMTQSPDSLAVSLGERATISCKASQSVLYSGDNYLNWYQQKPGQPPKLLIYAASTLESGIPDRFSGSGSGTDFTLTISSLQAEDVAVYYCQQYNGDPWTFGGGTKVEIKR
B2: TPP-3577 (antibody, V domains shown)
VH: B1 VH with G35C, P63T, Y113V
VL: B1 VL with A25S
B3: TPP-3290 (antibody, V domains shown)
VH: B1 VH with G37S, P63T
VL: B1 VL with D98T
B4: humanized and germlined anti-FXI antibody TPP-3238 (antibody, V domains shown)
VH: B1 VH with G37S, P63T, A106Y, H107Y, Y113V
VL: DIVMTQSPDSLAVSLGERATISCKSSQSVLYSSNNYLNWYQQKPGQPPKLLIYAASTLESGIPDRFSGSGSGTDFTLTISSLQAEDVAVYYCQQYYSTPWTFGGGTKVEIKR
B5: humanized and germlined anti-FXI antibody TPP-3290 (antibody, V domains shown)
VH: B1 VH with G37S, P63T
VL: B1 VL with D98T
B6: TPP-3238 (antibody, V domains shown)
VH: B1 VH with G37S, P63T, A106Y, H107Y, Y113V
VL: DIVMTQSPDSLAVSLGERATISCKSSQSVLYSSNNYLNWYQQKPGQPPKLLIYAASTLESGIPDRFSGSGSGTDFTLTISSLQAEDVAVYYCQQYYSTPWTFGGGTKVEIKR
B7: TPP-3583 (antibody, V domains shown)
VH: B1 VH
VL: B1 VL
B8: humanized and germlined anti-FXI antibody TPP-3577 (antibody, V domains shown)
VH: B1 VH with G35C, P63T, Y113V
VL: B1 VL with A25S
B9: 1A6 (antibody, V domains shown)
VH: QVTLKESGPGILKPSQTLSLTCSFSGFSLSTSGMGVGWIRQPSGKGLEWLAHIWWDDDKYYNPSLKSQLTISKDTSRNQVFLKITSVDAADTATYYCARKRSSVVAHYYAMDYWGQGTSVTVSS
VL: DIVLTQSPASLAVSLGQRATISCKASQSVDYDGDSYLNWYQQKPGQPPKLLIYAASNLESGIPARFSGSGSGTDFTLNIHPVEEEDAATYYCQQSNGDPWTFGGGTKLEIK
B10: murine anti-FXI antibody 1A6 (antibody, V domains shown)
VH: B9 VH
VL: B9 VL

Tests used:
[1] = target: T1, human coagulation factor XI (UniProt P03951 19-625); test: ELISA
[2] = target: T1, human coagulation factor XI; test: ELISA; remark: listed apart in the source
[3] = target: T1, human coagulation factor XI; test: Conversion Assay
[4] = target: T1, human coagulation factor XI; test: FXIIa induced FXI conversion assay
[5] = target: baboon FXI (Papio anubis (baboon)); test: ELISA
[6] = target: T1, human coagulation factor XI; test: ELISA; remark: listed apart in the source
[7] = target: T1, human coagulation factor XI; test: ELISA; remark: listed apart in the source
[8] = target: T1, human coagulation factor XI; test: ELISA; remark: listed apart in the source
[9] = target: T1, human coagulation factor XI; test: ELISA; remark: listed apart in the source

Binder	EC50 [1] [nM]	EC50 [3] [nM]	EC50 [5] [nM]	further results
B1	0.2	0.6	–	EC50 [2]: 0.219 nM; IC50 [4]: 0.598 nM
B2	–	–	0.16	–
B3	–	–	0.14	–
B4	0.16	0.6	–	EC50 [6]: 0.165 nM
B5	0.17	0.4	–	EC50 [7]: 0.168 nM
B6	–	–	0.28	–
B7	–	–	0.13	–
B8	0.19	0.4	–	EC50 [8]: 0.119 nM
B9	–	–	0.16	–
B10	0.15	0.5	–	EC50 [9]: 0.154 nM
